Changes are numbered by the printed parent chain.

Data set [1] deals with T1, F(uPA): Sendai virus F protein with the activation site modified to VGR (UniProt P04855).
T1 sequence: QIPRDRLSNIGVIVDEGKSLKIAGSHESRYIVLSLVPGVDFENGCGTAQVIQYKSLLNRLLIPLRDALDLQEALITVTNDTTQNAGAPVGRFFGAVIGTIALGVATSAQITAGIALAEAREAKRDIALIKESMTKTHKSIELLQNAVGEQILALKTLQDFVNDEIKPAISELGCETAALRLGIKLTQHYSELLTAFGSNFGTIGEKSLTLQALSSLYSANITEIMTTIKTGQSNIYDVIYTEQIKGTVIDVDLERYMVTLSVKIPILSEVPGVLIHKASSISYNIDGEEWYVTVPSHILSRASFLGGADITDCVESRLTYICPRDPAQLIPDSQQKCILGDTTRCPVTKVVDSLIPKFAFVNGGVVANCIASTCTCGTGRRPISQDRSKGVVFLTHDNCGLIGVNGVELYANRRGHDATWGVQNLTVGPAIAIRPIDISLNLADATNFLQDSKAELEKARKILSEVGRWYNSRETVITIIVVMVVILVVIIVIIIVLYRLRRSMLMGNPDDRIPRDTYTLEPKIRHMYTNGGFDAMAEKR

Data set [2] deals with T2, Sendai virus (SeV) F protein, wild type (unmodified F) (UniProt P04855).
T2 sequence: T1 sequence with V89Q, G90S

In data set [3] the target is T3, F(MMP#2): Sendai virus F protein with the activation site modified to PLG↓MTS (UniProt P04855).
T3 sequence: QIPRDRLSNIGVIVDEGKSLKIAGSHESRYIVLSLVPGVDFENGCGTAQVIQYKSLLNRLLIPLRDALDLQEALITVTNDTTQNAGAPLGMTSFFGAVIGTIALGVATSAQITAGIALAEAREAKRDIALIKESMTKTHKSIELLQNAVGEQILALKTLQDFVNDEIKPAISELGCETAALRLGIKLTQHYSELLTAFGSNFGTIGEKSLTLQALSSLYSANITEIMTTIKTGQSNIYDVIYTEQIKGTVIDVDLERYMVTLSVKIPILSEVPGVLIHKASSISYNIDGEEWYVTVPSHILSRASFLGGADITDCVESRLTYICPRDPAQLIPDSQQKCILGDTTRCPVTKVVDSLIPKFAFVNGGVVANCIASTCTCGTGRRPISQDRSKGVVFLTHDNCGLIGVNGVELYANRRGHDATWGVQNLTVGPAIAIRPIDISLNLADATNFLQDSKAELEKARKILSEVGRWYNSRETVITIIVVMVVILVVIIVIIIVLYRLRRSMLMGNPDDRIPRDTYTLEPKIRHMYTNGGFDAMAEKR

For data set [4], the target named is T4, Fct14(MMP#6)/Linker/HN chimeric protein (UniProt P04855).
T4 sequence: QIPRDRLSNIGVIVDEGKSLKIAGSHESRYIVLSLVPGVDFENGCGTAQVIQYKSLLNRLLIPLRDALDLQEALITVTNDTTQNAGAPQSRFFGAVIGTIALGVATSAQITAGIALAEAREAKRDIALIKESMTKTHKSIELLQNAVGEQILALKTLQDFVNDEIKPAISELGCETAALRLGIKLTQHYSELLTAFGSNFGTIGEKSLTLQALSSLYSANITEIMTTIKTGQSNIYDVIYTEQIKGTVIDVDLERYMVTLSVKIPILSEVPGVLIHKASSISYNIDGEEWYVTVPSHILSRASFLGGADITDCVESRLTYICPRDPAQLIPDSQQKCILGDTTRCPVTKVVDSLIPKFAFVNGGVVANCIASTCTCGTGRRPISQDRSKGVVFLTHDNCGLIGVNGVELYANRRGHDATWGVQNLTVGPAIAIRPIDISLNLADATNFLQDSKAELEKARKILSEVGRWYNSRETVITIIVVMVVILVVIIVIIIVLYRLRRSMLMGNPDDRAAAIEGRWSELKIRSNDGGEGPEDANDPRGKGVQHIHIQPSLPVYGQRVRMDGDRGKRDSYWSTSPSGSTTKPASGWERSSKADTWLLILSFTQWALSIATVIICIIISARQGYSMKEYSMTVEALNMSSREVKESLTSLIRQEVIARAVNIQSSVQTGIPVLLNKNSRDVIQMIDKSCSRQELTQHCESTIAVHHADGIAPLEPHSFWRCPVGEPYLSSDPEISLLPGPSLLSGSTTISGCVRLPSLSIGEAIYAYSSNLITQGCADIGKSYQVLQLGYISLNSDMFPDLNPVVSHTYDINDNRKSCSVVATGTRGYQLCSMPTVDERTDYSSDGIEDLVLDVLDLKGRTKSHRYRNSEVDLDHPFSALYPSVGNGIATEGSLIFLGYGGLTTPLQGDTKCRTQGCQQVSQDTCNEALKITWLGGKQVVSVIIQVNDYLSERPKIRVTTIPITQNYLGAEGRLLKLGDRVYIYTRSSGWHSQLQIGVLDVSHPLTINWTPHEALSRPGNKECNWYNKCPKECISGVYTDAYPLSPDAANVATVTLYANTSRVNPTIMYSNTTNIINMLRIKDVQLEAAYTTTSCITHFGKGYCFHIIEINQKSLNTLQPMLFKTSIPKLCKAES

“uPA (urokinase-type plasminogen activator)”: in data set [1], the “cleavage of F0 to F1 (Western blotting of protease-treated viral particles)” value was “uPA cleaved that of the M-deficient SeV vector having the uPA sequence inserted into the F protein” and the “syncytia formation in LLC-MK2 (exogenous protease)” value was “upon further modification of the F protein, showed the formation of syncytia, multinuclear cells, in the presence of uPA”.

In the case of trypsin (Gibco-BRL), the “cleavage of F0 to F1 (Western blotting of protease-treated viral particles)” value in data set [2] is recorded as “trypsin cleaved the F protein of the F-unmodified M-deficient SeV vector”. Also, in data set [1], the “cleavage of F0 to F1 (Western blotting; data not shown)” value is “for the M-deficient SeV vector into which uPA sequence is inserted, cleavage of F1 was observed in the presence of trypsin when the degradation time was prolonged to four hours”.

With active MMP-9 (COSMO BIO), in data set [3], the “cleavage of F0 to F1 (Western blotting of protease-treated viral particles)” value is on record as “MMP-9 cleaved that of the M-deficient SeV vector having the MMP#2 sequence inserted into the F protein”.

As to “type IV collagenase (Clostridium histolyticum) (ICN)”, in data set [4], the “fusogenicity (syncytium formation) relative to the MMP#2 chimera, against concentration of added collagenase” value is on record as “MMP#6 was found to have two to three times higher fusogenicity compared to MMP#2”.

(Values after US20050221292A1.)
